# According to US20210032299A1 (Eli Lilly, published 2021):
# Starred links: 1 amine or outer side, 2 acyl side, 3 side chain; linkers in the order of their positions; H or OH if unused. Non-standard residues stand in square brackets, D forms with d. Groups on a side chain read outwards from the residue. No end group written: not given here. *: point of attachment. C20 diacid = O=C(O)CCCCCCCCCCCCCCCCCCC(=O)*; γGlu = O=C(O)[C@H](CCC(=O)[*:2])N[*:1]; AEEA = NCCOCCOCC(=O)O
# T1: human glucose-dependent insulinotropic peptide receptor (human, UniProt P48546 22-466)
# T1 sequence (looked up): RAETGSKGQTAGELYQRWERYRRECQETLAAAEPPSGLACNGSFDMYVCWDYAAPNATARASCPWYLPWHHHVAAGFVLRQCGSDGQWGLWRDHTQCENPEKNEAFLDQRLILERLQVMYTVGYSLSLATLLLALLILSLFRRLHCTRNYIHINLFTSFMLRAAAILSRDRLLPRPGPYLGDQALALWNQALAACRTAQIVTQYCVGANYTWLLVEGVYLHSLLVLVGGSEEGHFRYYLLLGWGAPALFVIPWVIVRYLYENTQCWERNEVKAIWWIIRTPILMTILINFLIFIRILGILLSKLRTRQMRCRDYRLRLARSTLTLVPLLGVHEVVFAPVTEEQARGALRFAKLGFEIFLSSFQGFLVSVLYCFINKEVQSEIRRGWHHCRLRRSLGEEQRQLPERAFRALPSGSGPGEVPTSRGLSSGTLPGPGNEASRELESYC
# Legend:
# Test in all cases: cell-based or functional assay
# [1] = target: human GLP-1 receptor (human, UniProt P43220 24-463)
# [2] = target: T1, human glucose-dependent insulinotropic …
# [3] = target: human glucagon receptor (human, UniProt P47871 26-477)
# Chain of human glucagon receptor (P47871 26-477): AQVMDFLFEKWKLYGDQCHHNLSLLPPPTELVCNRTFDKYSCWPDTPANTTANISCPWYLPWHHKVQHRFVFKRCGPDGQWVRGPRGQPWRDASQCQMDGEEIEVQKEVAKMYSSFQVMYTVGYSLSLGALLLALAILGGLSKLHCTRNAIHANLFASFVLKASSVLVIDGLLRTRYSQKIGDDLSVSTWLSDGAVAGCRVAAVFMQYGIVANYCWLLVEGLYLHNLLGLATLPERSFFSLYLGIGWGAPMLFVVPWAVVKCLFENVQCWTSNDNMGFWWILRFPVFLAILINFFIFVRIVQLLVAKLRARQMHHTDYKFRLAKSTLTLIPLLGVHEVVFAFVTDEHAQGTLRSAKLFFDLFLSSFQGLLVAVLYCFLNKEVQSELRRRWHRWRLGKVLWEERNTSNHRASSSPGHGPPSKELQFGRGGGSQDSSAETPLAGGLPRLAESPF
Binder,hGLP1R cAMP Rel EC50 [1] [nM],hGIPR cAMP Rel EC50 [2] [nM],hGcgR cAMP Rel EC50 [3] [nM]
Y[dA]EGTFISDYSILLDKK([AEEA-AEEA-γGlu-C20 diacid])HQQEFVNWLLAQGPSSGAPPPS-NH2 (N-terminus assumed; SMILES CC[C@H](C)[C@H](NC(=O)[C@H](CO)NC(=O)[C@H](Cc1ccc(O)cc1)NC(=O)[C@H](CC(=O)O)NC(=O)[C@H](CO)NC(=O)[C@@H](NC(=O)[C@H](Cc1ccccc1)NC(=O)[C@@H](NC(=O)CNC(=O)[C@H](CCC(=O)O)NC(=O)[C@@H](C)NC(=O)[C@@H](N)Cc1ccc(O)cc1)[C@@H](C)O)[C@@H](C)CC)C(=O)N[C@@H](CC(C)C)C(=O)N[C@@H](CC(C)C)C(=O)N[C@@H](CC(=O)O)C(=O)N[C@@H](CCCCN)C(=O)N[C@@H](CCCCNC(=O)COCCOCCNC(=O)COCCOCCNC(=O)CC[C@H](NC(=O)CCCCCCCCCCCCCCCCCCC(=O)O)C(=O)O)C(=O)N[C@@H](Cc1c[nH]cn1)C(=O)N[C@@H](CCC(N)=O)C(=O)N[C@@H](CCC(N)=O)C(=O)N[C@@H](CCC(=O)O)C(=O)N[C@@H](Cc1ccccc1)C(=O)N[C@H](C(=O)N[C@@H](CC(N)=O)C(=O)N[C@@H](Cc1c[nH]c2ccccc12)C(=O)N[C@@H](CC(C)C)C(=O)N[C@@H](CC(C)C)C(=O)N[C@@H](C)C(=O)N[C@@H](CCC(N)=O)C(=O)NCC(=O)N1CCC[C@H]1C(=O)N[C@@H](CO)C(=O)N[C@@H](CO)C(=O)NCC(=O)N[C@@H](C)C(=O)N1CCC[C@H]1C(=O)N1CCC[C@H]1C(=O)N1CCC[C@H]1C(=O)N[C@@H](CO)C(N)=O)C(C)C) [Example 13],> 100,0.129,> 5000
Y[dA]EGTFISDYSILLDKK([AEEA-AEEA-γGlu-C20 diacid])HQQDFVNWLLAGGPSSGAPPPS-NH2 (N-terminus assumed; SMILES CC[C@H](C)[C@H](NC(=O)[C@H](CO)NC(=O)[C@H](Cc1ccc(O)cc1)NC(=O)[C@H](CC(=O)O)NC(=O)[C@H](CO)NC(=O)[C@@H](NC(=O)[C@H](Cc1ccccc1)NC(=O)[C@@H](NC(=O)CNC(=O)[C@H](CCC(=O)O)NC(=O)[C@@H](C)NC(=O)[C@@H](N)Cc1ccc(O)cc1)[C@@H](C)O)[C@@H](C)CC)C(=O)N[C@@H](CC(C)C)C(=O)N[C@@H](CC(C)C)C(=O)N[C@@H](CC(=O)O)C(=O)N[C@@H](CCCCN)C(=O)N[C@@H](CCCCNC(=O)COCCOCCNC(=O)COCCOCCNC(=O)CC[C@H](NC(=O)CCCCCCCCCCCCCCCCCCC(=O)O)C(=O)O)C(=O)N[C@@H](Cc1c[nH]cn1)C(=O)N[C@@H](CCC(N)=O)C(=O)N[C@@H](CCC(N)=O)C(=O)N[C@@H](CC(=O)O)C(=O)N[C@@H](Cc1ccccc1)C(=O)N[C@H](C(=O)N[C@@H](CC(N)=O)C(=O)N[C@@H](Cc1c[nH]c2ccccc12)C(=O)N[C@@H](CC(C)C)C(=O)N[C@@H](CC(C)C)C(=O)N[C@@H](C)C(=O)NCC(=O)NCC(=O)N1CCC[C@H]1C(=O)N[C@@H](CO)C(=O)N[C@@H](CO)C(=O)NCC(=O)N[C@@H](C)C(=O)N1CCC[C@H]1C(=O)N1CCC[C@H]1C(=O)N1CCC[C@H]1C(=O)N[C@@H](CO)C(N)=O)C(C)C) [Example 10],> 100,0.611,> 5000
Y[dA]EGTFISDYSILLDKK([AEEA-AEEA-γGlu-C20 diacid])AQQDFVNWLLAQGPSSGAPPPS-NH2 (N-terminus assumed; SMILES CC[C@H](C)[C@H](NC(=O)[C@H](CO)NC(=O)[C@H](Cc1ccc(O)cc1)NC(=O)[C@H](CC(=O)O)NC(=O)[C@H](CO)NC(=O)[C@@H](NC(=O)[C@H](Cc1ccccc1)NC(=O)[C@@H](NC(=O)CNC(=O)[C@H](CCC(=O)O)NC(=O)[C@@H](C)NC(=O)[C@@H](N)Cc1ccc(O)cc1)[C@@H](C)O)[C@@H](C)CC)C(=O)N[C@@H](CC(C)C)C(=O)N[C@@H](CC(C)C)C(=O)N[C@@H](CC(=O)O)C(=O)N[C@@H](CCCCN)C(=O)N[C@@H](CCCCNC(=O)COCCOCCNC(=O)COCCOCCNC(=O)CC[C@H](NC(=O)CCCCCCCCCCCCCCCCCCC(=O)O)C(=O)O)C(=O)N[C@@H](C)C(=O)N[C@@H](CCC(N)=O)C(=O)N[C@@H](CCC(N)=O)C(=O)N[C@@H](CC(=O)O)C(=O)N[C@@H](Cc1ccccc1)C(=O)N[C@H](C(=O)N[C@@H](CC(N)=O)C(=O)N[C@@H](Cc1c[nH]c2ccccc12)C(=O)N[C@@H](CC(C)C)C(=O)N[C@@H](CC(C)C)C(=O)N[C@@H](C)C(=O)N[C@@H](CCC(N)=O)C(=O)NCC(=O)N1CCC[C@H]1C(=O)N[C@@H](CO)C(=O)N[C@@H](CO)C(=O)NCC(=O)N[C@@H](C)C(=O)N1CCC[C@H]1C(=O)N1CCC[C@H]1C(=O)N1CCC[C@H]1C(=O)N[C@@H](CO)C(N)=O)C(C)C) [Example 11],> 100,0.0738,445
Y[dA]EGTFISDYSILLDKK([AEEA-AEEA-γGlu-C20 diacid])AQQDFVNWLLAGGPSSGAPPPS-NH2 (N-terminus assumed; SMILES CC[C@H](C)[C@H](NC(=O)[C@H](CO)NC(=O)[C@H](Cc1ccc(O)cc1)NC(=O)[C@H](CC(=O)O)NC(=O)[C@H](CO)NC(=O)[C@@H](NC(=O)[C@H](Cc1ccccc1)NC(=O)[C@@H](NC(=O)CNC(=O)[C@H](CCC(=O)O)NC(=O)[C@@H](C)NC(=O)[C@@H](N)Cc1ccc(O)cc1)[C@@H](C)O)[C@@H](C)CC)C(=O)N[C@@H](CC(C)C)C(=O)N[C@@H](CC(C)C)C(=O)N[C@@H](CC(=O)O)C(=O)N[C@@H](CCCCN)C(=O)N[C@@H](CCCCNC(=O)COCCOCCNC(=O)COCCOCCNC(=O)CC[C@H](NC(=O)CCCCCCCCCCCCCCCCCCC(=O)O)C(=O)O)C(=O)N[C@@H](C)C(=O)N[C@@H](CCC(N)=O)C(=O)N[C@@H](CCC(N)=O)C(=O)N[C@@H](CC(=O)O)C(=O)N[C@@H](Cc1ccccc1)C(=O)N[C@H](C(=O)N[C@@H](CC(N)=O)C(=O)N[C@@H](Cc1c[nH]c2ccccc12)C(=O)N[C@@H](CC(C)C)C(=O)N[C@@H](CC(C)C)C(=O)N[C@@H](C)C(=O)NCC(=O)NCC(=O)N1CCC[C@H]1C(=O)N[C@@H](CO)C(=O)N[C@@H](CO)C(=O)NCC(=O)N[C@@H](C)C(=O)N1CCC[C@H]1C(=O)N1CCC[C@H]1C(=O)N1CCC[C@H]1C(=O)N[C@@H](CO)C(N)=O)C(C)C) [Example 12],> 100,0.0911,> 5000
